This is an account of results in the nanobody polyreactivity screen of Harvey et al. (2022).

The nature of this data set: yeast display, Sf9 membrane polyspecificity reagent, FACS + sequencing; frameworks hold sequencing errors. The gist of the method:
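Synthetic nanobody libraries on Saccharomyces cerevisiae BJ5465 were galactose-induced for 36–48 hours, stained 1 hour at 4 °C with 10% biotinylated, detergent-solubilized Sf9 membrane reagent and enriched on streptavidin microbeads. FACS then separated cells into low and high (top ~1%) gates by anti-HA (expression) and streptavidin (reagent binding) fluorescence. Genes were colony-PCR amplified, MiSeq 2 × 250 sequenced and CDR-length filtered. A clone's polyreactivity label is that of its gate of origin.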
As to “QVQLVESGGGLVQAGGSLRLSCAASGSIIYRYAMGWYRQARGKERELVAAISTTGGRTYYADSVKGRFTISRDNAKNTVYLQMNSLKPEDTAVYYCNTYGSGTHSTGYDYWGQGTQVTVSS”, the “polyreactivity (PSR sort gate)” value is reported as “low polyreactivity”. The same measure for “QVQLVESGGGLVQAGGRLRLSCAASGRTFIGYAMGWSRQAPGKERELVAAISSTGGSTYYADSVKGRFTISRDNAKNTVYLQMNSLKPEDTAVYYCATDADRPPRTPDISYVSNFDYWGQGTQVTVSS”: “low polyreactivity”; for “QVQLVESGGCLVQAGGSLRLSCAASGFTFRRYTMGWSRQAPGKDRELVAAISGRGGRTYYADSVKGRFTISRDNAKNTVYLQMNSLQPQDTAVYYSAADTPYWQSSKYDYWGQGTQVTVSS”: “high polyreactivity”. Consider “QVQLVESGGGLVQAGGSLRLSCAASGRTIRTYTMGWYRQAAGKERELVAAISWSGSSTYYADSVKGRFTISRDNAKNTVYLQMNSLKPEDTAVYYCAARGLYDYGYWGQGTQVTVSS”, for which the “polyreactivity (PSR sort gate)” value was “high polyreactivity”. The same measure for “QVQLVESGGGLVQAGGSLRLSCAASGRTFNRYAMGWYRQAPGKERELVAAISGGGSSTSYADSVKGRFTISRDNAKNTVYLQMNSLKPEDTAVYYCAAKYGALRYYNMYYWGQGTQVTVSS”: “low polyreactivity”; for “QVQLVESCGGLVQAGGSLRLRCAASGRIIRKYVMAWYRQAPGKERELVAAITGGGSTYYADSVKGRFTISRDNAKNTVYFQKNSLKPEDTAVYYCAADRQSAAHRLWGSEYGYWGQGTQVTVSS”: “high polyreactivity”; for “QVQLVESGGGIVQAGGSLRLSCAASGFTYSDYAMGWYRQAPGKERELVAGISSGGSTNYADSVKGRFTISRDNAKYTVYFQMNSLKQVDTAVYYCAAYLYATWSYFFTWLDFWGQGTKVTVSS”: “high polyreactivity”. With “QVQLEESGGGLVQAGGSLRLICAASGSTFYPNAMGWYRQAPGKERELVAAITDSVGTTNYADSVKGRFTISRDNAKNTVYLQMNSLKPEDTAVYYCAKVKSYWNGYRYYYWGHGTQVTVSS”, the “polyreactivity (PSR sort gate)” value is on record as “low polyreactivity”. The same measure for “QVQLVESGGGLVQAGGSLRLSCAASGLTFGLYAMGWYRQAPGIERELVAGITAGGRTYYADSVKGRFTISRDNAKNTVYLQMNSLKPEQTAVYYCATVNYRSGRGYRRVYTAYYYWGQGTQVTVSS”: “low polyreactivity”. “QVQLVESGGGLVQAGGSLRLSCAASGSTFYQYAMGWYRQAPGKERELVAAISWDSGSTYYADSVKGRFTISRDNAKNTVYLQMNSLKPEDTAVYYCAASWYGYYDCYAVEYDYLGQGTQVTVSS”: the “polyreactivity (PSR sort gate)” value is listed as “low polyreactivity”.

On to “QVQLVESGGGLVQAGGSLRLSCAASGRTFWEHAMGWYRQAPGKERELVAAISGDSGSTYYADSVKGRFTISRDNANNSVYLQMNSLKPEDTAVYYCAGDSDRDDSYPYYYWGQGTQVTVSS”, for which the “polyreactivity (PSR sort gate)” value is “low polyreactivity”.

With “QVQLVESGGGLVQAGGSLRLSCAASGFIFRRNAMGWYRQAPGKERELVAAIRQRGDSTYYADSVKGRFTISRDNAKITVYLQMNSLKPEDTAVYYCNAVAKLYYWRYDYWGQGTQVTVSS”, the “polyreactivity (PSR sort gate)” value is reported as “low polyreactivity”. Under “QVQLVESGGGLVHAGGSLRLSCAASGGIFAGNVMGWDRQAPGKERYLVAAIDGDGRTYYADSVKGRFTISRDNAKNTVYLQMYSQKPEDTAVYYCAADAGVRGQYDDIDEGNYWGLGTQVTVSS” stands “low polyreactivity”. Turning to “QVQLVESGGGLVQAGGSLRLSCAASGFIFDGYTMGWYRQAPGKERELVAAISRSGGRTYYADSVKGRFTISRDNAKNTVYLQMNSLKPEDTAVYYCAVRYRQYSQTVASDYGYWGQGTQVTVSS”, the “polyreactivity (PSR sort gate)” value was “high polyreactivity”. The same measure for “QVQLVESGGGLVQAGGSLRLSCAASGRIFYRNTMGWYRQAPGKERELVAAITRSGGITNYADSVKGRFTISRDNAKNTVYLQMNSLKPEDTAVYYCNAAYLYSASRGVYRYRGDYWGQGTQVTVSS”: “high polyreactivity”. Under “QVQLVESGGALVQAGGSLRLSCAASGGTFFSNAMGWYRQAPGKERELVAAISNDDGDTYYADSVKGRFTISRDNAKNTVYLQMNSLKPEDTAVYYCAVDYSYLHRTTFEYWGQGTQVTVSS” stands “low polyreactivity”; under “QVQLVESGGGLVQAGGSLRLSCAASGNIFGEYAMGWYRQAPGKERELVATISSGGDTYYADSVKGRFTISRDNAKNTVYLQMNSLKPEDTAVYYCAVVDTLYESKYDYWGQGTQVTVSS”, “low polyreactivity”. Under “QVQLVESGGGLVQAGGSLRLSCAASGSIFLFNAMGWYRQAPGKERELVAAINRDDSTYYADSVKGRFTISRDNAKNTVYLQMNSLKPEDTAVYYCAAPVLHASYGYGYWGQGTQGTVSS” stands “low polyreactivity”; under “QVQLVESGGGLVQAGGSLRLSSAASGSTLVIYAMGWYRQAPGIERQLVAAIDANTGSTYYADSVKGRFTISLDNAKNTDYLQMNSLKPEDTAVYYCNAQVYLPTAYDYWGQGTLVTVSS”, “low polyreactivity”. Consider “QVQLVESGGGLVQAGGSLRLSCAASGRIFGYYTMGWYRQAPGKERELVATITGGGGSTYYADSVKGRFTISRDNAKNTVYLQMNSLKPEDTAVYYCAKRNWKYVSHRHSYYETYDYWGQGTQVTVSS”, for which the “polyreactivity (PSR sort gate)” value was “high polyreactivity”. Under “QVHLVESGGGLVQAGGSLRLSCAASGFTFDYYAMGWYRQAPGKERELVAAISWSGASTYYADSVKGRFTISRDNAKNTVYLQMNSLKPEDTAVYYCNRPKWYDGDYWGQGTQVTVSS” stands “high polyreactivity”; under “QVQLVESGGGLVQAGGSLRLSCAASGRTFGLYAMGWYRQAPGKVRELVAAISWGGGRTYYADSVKGRFSISRDNAKNSVYLQMNSLKPEDTAVYYCNAVYSPRDYVGGYDYWGQGTQVTVSS”, “high polyreactivity”.

With “HVQLVESGGGLVQAGGSLRLSCAASGRISLFNAMGWYRQAPGKERELVAAITYTGGSTYYADSVKGRFTISRDNAKNTVYLQMNSLKPEDTAVYYCAAEYYYVYTYDYWGQGTQVTVSS”, the “polyreactivity (PSR sort gate)” value was “high polyreactivity”. Under “QVQLVESGGGLVHAGGSLRLSCAASGSTFGYYAIGWNRQAPGKERELVAVITGSGGSTYYADSVKGRFTISRDYAKNTVYLQMNSLKPEDTAVYYCAARRWNPTYEYWGQGTQVTVSS” stands “high polyreactivity”. Take “QVQLVESGGGLVQAGGSLRLSCAASGRIFRPNAMGWYRQAPGKERELVAAMTSGGSTNYADSVKGRFTISRDNAKNTVYLQMNSLKPEDTAVYYCAKGYKYGKNIYYYWGQGTQVTVSS”: the “polyreactivity (PSR sort gate)” value was “high polyreactivity”. The same measure for “QVQLVESGGGLVQAGCSLRLSCAASGFTFGSYAMGWYRQAPWKEREFVAAIRRSGSSTYYADSVKGRFTISRDNAKNTVYLQMNSLKPEDTAVYFCAADVYRRLRRYRYYYLGQGTQVTVSS”: “low polyreactivity”.

As to “QVQLVESGGGLVQAGGSLRLSCAASGSTFQYYAMGWYRQAPGKERELVAAISSGGSTYYADSVKGRFTISRDNAKNTVYLQMNSLKPEDTAVYYCAADFVNRQANRQFDYWGQGTQVTVSS”, the “polyreactivity (PSR sort gate)” value is listed as “high polyreactivity”. Under “QVQVVESGGGLVQAGGSLRLSCAASGFTFAWYTMGWYRQAPGKERELVAAISTGGNTYYADSVKGRFTISRDNAKNTVYLQMNSLKPEDTAVYYCATRPRGQTYNYWGQVTQVTVSS” stands “high polyreactivity”; under “QVQLQESGGGLVQAGGSLRLSCAASGTISEDDWSGWYRQAPGKERELVAAIGLGSNTNYADSLKGRFPISRDNAKNTVYLQMNSLKPEDTAVYYSAVSVWQYSDNVYRGQGTQVTVSS”, “low polyreactivity”. “QVQLVESGGGLVQAGGSLRLSCAASGIIFGTYAMGWYRQAPGKERELVASISSRGGSTYYADSVKGRFTISRDNAKNTVYLQMNSLKPEDTAVYYCAKRPSYAYSRYRKGHDYWGQGTQVSVSS”: the “polyreactivity (PSR sort gate)” value is on record as “high polyreactivity”.

As for “QVQLVESGGGLVQAGGSLRLSCAASGSISSYYAMGWYRQATGKERELVAAISKSGGSTYYADSVKGRFTISRDNAKNTVYLQMNSLKPEDSAVYYCAARDYGWRYYRKYDYWGQGTQVTVSS”, the “polyreactivity (PSR sort gate)” value is “high polyreactivity”.

In the case of “QVQLVESGGGLVQAGGSLRLSCAASGSTFPEYGMGWYRQAPGKERELVAAINSRGGNTYYADSVKGRFTISRDNAKKTVYLQMNSLKPEDTAVYYCNRLSSYNMDYWGQGTQVTVSS”, the “polyreactivity (PSR sort gate)” value is “high polyreactivity”. Under “QVQLVESWGGLVQAGGSLRLSCAASGRIFVKYAMGWYRQAPGKERELVAAISWIGGSTYYADSVKGRFTISRDNAKNTVYLQMNSLKPEDTAVYYCAAQGKDYEASPGYDGGRNYWGQGTQVTVSS” stands “low polyreactivity”. As to “QVQLVESGGGLVQAGGSLRLSCAASGITFYANAMGWYRQAPGKERELVATISYRGGSTYYADSVKGRFTISRDNAKNTVYLQMNSLKPEDTAVYYCAARRRRTSNTRVEHNYWGQGTQVTVSS”, the “polyreactivity (PSR sort gate)” value is “high polyreactivity”. In the case of “QVQLVESGGGLVQAGGSLRLSCAASGRIFYYYAMGWYRQAPRKERELVAAISWSDDSTYYADSVKGRFTISRDNAKNTVYLQMNSLKPEDTAVYYCAADSIHYQFDYWGQGTQVTVSS”, the “polyreactivity (PSR sort gate)” value is given as “low polyreactivity”. The same measure for “QVQLVESGGGLVQAGGSLRLSCAASGGIFAPYAMGWYRQAPGKERELVADITSDGGSTYYADSVKGRFTISRDNAKNTVYLQMNSLKPEDTAVYYCAAEQRYWWWGHPGDYWGQGTQVTVSS”: “low polyreactivity”. Under “QVQLVESGGGLVQAGGSLRLSCAASGSTFQHYAMGWYRQAPGKERELVAAITNTGGSTYYADSVKGRFTISRDNAMNTVYLLMNSLKPEDTAVYYCATVGRRYGYPGYYWGQGTQVTVSS” stands “low polyreactivity”; under “QVQLVESGGGLVQAGGSLRLSCAASGFTFSGYAMGWYRQAPGKERELVASITGSGSSTYYADSVKGRFTISRDNAKNNVYLQMNSLKPEDTAVYYCNAQFIGGWWAIYDYWGQGTQVTVSS”, “high polyreactivity”. For the sequence “QVQLVESGGGLVQAGGSLRLSCAASGSTIVYYAMGWYRQAPGKERELVAAISGSGGSTYYADSVKGRFTISRDNAKNTVYLQMNSLKPEDTAVYYCAKSYGSHRKIRTSFGYWGQGTQVTVSS”, the “polyreactivity (PSR sort gate)” value is recorded as “high polyreactivity”. The same measure for “QVQLVESGGGLVQAGGSLRLSCAASGLICTYYAMGWYRQAPGKEWEFVAGISKSTSSTYYADSVKGRFTISRDNAKNTVYLLMISLKPEDTAVYYCAAQGGRNRGYRYYWGQGTQVTLSS”: “high polyreactivity”.
